Test results reported in PMC3409459, “Absorption, distribution, metabolism and excretion of peginesatide, a novel erythropoiesis-stimulating agent, in rats” (Xenobiotica; the Fate of Foreign Compounds in Biological …, 2011).
Like-named read-outs stand apart in the source and are kept apart here.

Tests used:
[1] = Plasma pharmacokinetics of unlabeled peginesatide after a single IV dose (ELISA); format: in vivo, male Sprague-Dawley rats; conditions: for time for which plasma concentrations were quantifiable: LLOQ 40 ng/mL; for AUC0–t / CL / t½ / Cmax: plasma, mean (SD), n=3; for Cmax: value at 0.25 h
Description: Plasma samples were analyzed for peginesatide concentration using a competition enzyme linked immunosorbent assay (ELISA) as previously described ([Fan et al. 2006]). The capture anti-peginesatide antibody was a high affinity polyclonal antibody preparation directed against the peptidic part of the molecule so the assay detects mono- and di-PEG-conjugated peptide as well as free peptide. The lower limit of quantitation was 40 ng-mL^1, the intra assay precision (% coefficient of variation) was 5-10% and the intra assay accuracy (% bias) was 1.9-5.7%.
The PK of peginesatide was assessed in male Sprague-Dawley rats following the administration of unlabeled and radiolabeled test article. The linearity of the PK profile was evaluated in rats (n = 3/group) administered a single IV dose of peginesatide at 0.1, 0.5, or 5 mg·kg^−1. Blood samples were collected predose and 0.25,1, 6, and 24h, and 2,3, 5, 7,10,14,17, 21, 24, and 28 days following dosing. Samples were analyzed by ELISA.
Noncompartmental PK parameters for peginesatide and metabolites were generated using WinNonlin ver. 4.0, Pharsight Corporation (Mountain View, CA). The maximum plasma concentration (Cmax) and their times of occurrence (tmax) were obtained directly from the mean plasma concentration vs. time profiles. The areas under the plasma concentration-time curves […] were estimated by the linear trapezoidal rule - by adding all the area portions under the curve from time zero to the time of the last observed plasma concentration (tn). Elimination rate constants (kz) were estimated by fitting a linear regression of log mean concentration against time data in the terminal exponential phase (at least 3 data points). Apparent terminal half-life (t1/2) was calculated as In2/λz. The AUC0-inf was calculated as the sum of AUC0-t and Cobs/λz, where Cobs, was the actual concentration at the time of the last quantifiable concentration. The plasma clearance (CL) for peginesatide was estimated as the ratio of dose/ AUC0-inf. The mean residence time (MRT) was calculated as the ratio of AUMC0-inf/AUC0-inf, where AUMC0-inf was the area under the first moment curve from the time zero to infinity. The volume of distribution at steady state (Vss) was estimated as CL x MRT.

[2] = set-up: species or system male Sprague-Dawley rats; conditions: rat, in vivo, iv
Description: The metabolite profiling in the biological samples from rats dosed with [^14C]-peginesatide was performed by high-performance liquid chromatography (HPLC). The radiolabeled materials in the samples of plasma and aqueous homoge-nates of tissues and feces were extracted with five volumes of methanol containing 0.1% of trifluoroacetic acid (TFA), mixed and centrifuged at 1500g at 4°C for l0 min to obtain supernatant. A portion of the supernatant was counted to estimate the extraction recovery of [^14C]-peginesatide and its related compounds in the biological samples. The rest of the supernatant was evaporated to dryness under a nitrogen gas stream. The residue was re-dissolved in a small volume of equal parts mobile phase [MP(A)] and B [MP(B)] for chromatographic analysis. The HPLC system (Simadzu, Kyoto, Japan) consisted of a LC-lOADvp pump, a CTO-lOACvp column oven, an SPD-lOAvp UV detector, and an SCL-lOAvp system controller. […] The flow rate was 0.5mL/min, and the peaks were monitored by a UV absorption detector at 215 run. […] The effluentwas collected into 0.5mL size fractions, followed by counting of the radioactivity (LSC). […]
Noncompartmental PK parameters for peginesatide and metabolites were generated using WinNonlin ver. […] Apparent terminal half-life (t1/2) was calculated as In2/λz. The AUC0-inf was calculated as the sum of AUC0-t and Cobs/λz, where Cobs, was the actual concentration at the time of the last quantifiable concentration. […] The mean residence time (MRT) was calculated as the ratio of AUMC0-inf/AUC0-inf, where AUMC0-inf was the area under the first moment curve from the time zero to infinity. […]
The plasma metabolic profile of [^14C]-peginesatide was determined by the HPLC analysis described above and measurement of radioactivity using LSC. […] The moieties detected were designated as peginesatide or mono-PEG (peginesatide with one PEG chain), with the remaining radioactivity designated as “Other” The classification of Other is anticipated to encompass smaller PEGylated-peptide and peptide/ amino acid components. […]

[3] = In vivo metabolite profiling, plasma and tissues at 14 days; set-up: species or system male Sprague-Dawley rats; conditions: single IV 5 mg/kg [^14C]-peginesatide; HPLC fractions/LSC; n = 3
[4] = ref Fan et al. 2006; cited from earlier work
Description: Multiple clearance mechanisms may be involved with peginesatide as clearance involves glomerular filtration; a presumably non-saturable elimination. […] High concentrations of radioactivity were also measured in the liver. In addition, negligible excretion (<0.1%) of the radiolabel was d ...

[5] = ref Im et al. 2010, cited from earlier work
Source text: The totality of the metabolism data is consistent with in vitro studies conducted in liver and kidney micro-somes and S9 fractions from rats, monkeys, and human donors ([Im et al. 2010]).

[6] = cited from earlier work
Description: Erythropoietin is deficient in patients with CKD-associated anemia. Administration of ESAs, such as peginesatide, leads to activation of the appropriate signaling at the EPO receptor ([Fan et al. 2006]). […] The principal findings in the single and repeat dose toxicity studies are primarily attributed to the pharmacological effects of peginesatide and secondary sequelae when an ESA is administered to an initially nor ...

[7] = Mass balance study (urine, feces, expired air, carcass); conditions: initial 3 days after dosing; single IV 5 mg·kg^−1
Source text: Radioactivity in diluted formulations, plasma, urine, and expired air (CO2-absorbent solution) was quantitated by mixingwith liquid scintillator Hionic-Fluor (PerkinElmer Life and Analytical Sciences) followed by liquid scintillation counting (LSC). Solid samples were homogenized (10 or 20% w/v in distilled water) before combustion in a sample oxidizer (A030701; PerkinElmer Life and Analytical Sciences) with Carbo-Sorb E (PerkinElmer Life and Analytical Sciences) as a carbon dioxide absorbent and Permafluor E^+ (PerkinElmer Life and Analytical Sciences) as a liquid scintillator. Total captured radioactivity was subsequently measured via LSC.
Urine and feces were collected at 24-h intervals up to 14 days after dosing and expired air was collected up to 24 h after dosing. The levels of radioactivity in urine and expired air were measured by LSC and in feces by LSC following combustion. After the final collection of excreta at 2 weeks, the animals were sacrificed and the carcasses were dissolved in potassium hydroxide/distilled water/ethanol (3:3:7, w/v/v), and examined for residual radioactivity by LSC.

Substance: Peginesatide
- time for which plasma concentrations were quantifiable ([1]; 0.1 mg·kg^−1 IV): 3 days
- AUC0–t ([1]; 0.1 mg·kg^−1 IV): 60.3 (4.71) μg·h/mL
- CL ([1]; 0.1 mg·kg^−1 IV): 1.65 (0.13) mL/h/kg
- t½ ([1]; 0.1 mg·kg^−1 IV): 17.5 (0.3) h
- Cmax ([1]; 0.1 mg·kg^−1 IV): 2.56 (0.162) μg/mL
- AUC0–t ([1]; 0.5 mg·kg^−1 IV): 388 (48.8) μg·h/mL
- CL ([1]; 0.5 mg·kg^−1 IV): 1.29 (0.18) mL/h/kg
- t½ ([1]; 0.5 mg·kg^−1 IV): 19.7 (2.6) h
- Cmax ([1]; 0.5 mg·kg^−1 IV): 13.5 (1.40) μg/mL
- time for which plasma concentrations were quantifiable ([1]; 5 mg·kg^−1 IV): up to 7 days
- AUC0–t ([1]; 5 mg·kg^−1 IV): 5405 (327) μg·h/mL
- CL ([1]; 5 mg·kg^−1 IV): 0.92 (0.06) mL/h/kg
- t½ ([1]; 5 mg·kg^−1 IV): 31.6 (3.4) h
- Cmax ([1]; 5 mg·kg^−1 IV): 137 (6.19) μg/mL
- Tmax [2]: 0.25 h
- t½α [2]: 29.1 h
- t½β [2]: 110 h
- Day 14 concentration, Kidneys [3]: 2.64 μg equiv·g^−1 or mL
- clearance in a rat chronic renal insufficiency model compared to a rat with normal renal function [4]: twofold lower clearance
- metabolites after incubation with microsomes (metabolic stability in vitro) ([5]; human donor liver and kidney microsomes and S9 fractions): no metabolites were observed
- metabolites after incubation with microsomes (metabolic stability in vitro) ([5]; monkey liver and kidney microsomes and S9 fractions): no metabolites were observed
- metabolites after incubation with microsomes (metabolic stability in vitro) ([5]; rat liver and kidney microsomes and S9 fractions): no metabolites were observed
- reticulocytes and hemoglobin levels ([6]; single IV administration in humans, ref Stead et al. 2006): dose-dependent increases in reticulocytes and hemoglobin levels
- reticulocytes and hemoglobin levels ([6]; single IV administration in rats, ref Fan et al. 2006): dose-dependent increases in reticulocytes and hemoglobin levels
- fecal recovery of the total radioactive dose [7]: 5 % of the total radioactive dose
- urinary recovery of the total radioactive dose [7]: 23 % of the total radioactive dose
